Measured values reported in patent US20220275049A1, “ANTIGENIC POLYPEPTIDES AND METHODS OF USE THEREOF” (AGENUS INC., priority 2019, published 2022).
Square brackets hold non-standard residues; d marks the D form. Ends that are not written are not given here. pT = C[C@@H](OP(=O)(O)O)[C@H](N)C(=O)O; pS = N[C@@H](COP(=O)(O)O)C(=O)O

Tests used:
Experiment in all cases: AlphaScreen, peptide titrated on biotinylated HLA + b2m
Settings in all cases: remark: other sources report otherwise
[1] = target: biotinylated HLA-B*07:02 with β2m (human)
[2] = target: biotinylated HLA-A*02:01 with β2m (human)
[3] = target: biotinylated HLA-C*07:01 with β2m (human)

| Kd [1] [nM] | Kd [2] [nM] | Kd [3] [nM] | Binder |
| --- | --- | --- | --- |
| 75.5 | – | – | TPR[pS]PPLGL [TPRsPPLGL] |
| – | 53.9 | – | SLFGG[pS]VKL [SLFGGsVKL] |
| – | 20.4 | – | RQA[pS]IELPSM [RQAsIELPSM] |
| 117 | – | – | RPT[pS]RLNRL [RPTsRLNRL] |
| – | 40.5 | – | VLY[pS]PQMAL [VLYsPQMAL] |
| 227 | 242 | – | RVA[pS]PTSGV [RVAsPTSGV] |
| 551 | – | – | RVR[pS]PTRSP [RVRsPTRSP] |
| – | 260 | – | KLIDRTE[pS]L [KLIDRTEsL] |
| – | 701 | – | SMTR[pS]PPRV [SMTRsPPRV] |
| 34.1 | – | – | GPRSA[pS]LLSL [GPRSAsLLSL] |
| – | 150 | – | VLL[pS]PVPEL [VLLsPVPEL] |
| 218 | – | – | RPRPV[pS]PSSL [RPRPVsPSSL] |
| 50 | 500 | – | GPRSA[pS]LL[pS]L [GPRSAsLLsL] |
| 199 | – | – | EPR[pS]PSHSM [EPRsPSHSM] |
| 47.1 | – | – | GPRSASLL[pS]L [GPRSASLLsL] |
| 369 | – | – | RPS[pS]LPDL [RPSsLPDL] |
| – | 14.8 | – | RQA[pS]IELPSMAV [RQAsIELPSMAV] |
| – | 431 | – | GLLG[pS]PVRA [GLLGsPVRA] |
| 199 | – | – | QPR[pT]PSPLVL [QPRtPSPLVL] |
| 91 | – | – | TPR[pS]PPLGLI [TPRsPPLGLI] |
| – | 157 | 380 | RTL[pS]HISEA [RTLsHISEA] |
